Patent US20140051084A1

Columns and labels:
Abeta1-42 [1] = assay: intracellular flow cytometry of THP-1 cells, isotype control stain (background level)
Abeta1-42 [2] = assay: intracellular flow cytometry of monocytes/macrophages from patient and control, isotype control stain (background level)

Sequence of Abeta1-42 (peptide, as listed by the source): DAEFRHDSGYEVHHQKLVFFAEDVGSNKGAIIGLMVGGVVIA

median Abeta FITC-A signal (Abeta1-42 [1]): 102
median Abeta FITC-A signal (Abeta1-42 [2]): 102
Substance: isotype control antibodies (Mouse IgG1 and IgG2b) (antibody)
